Measured values as given in patent US20200347151A1 (CRAGE MEDICAL, published 2020).

Key:
[1] = target: T1, mouse FAPα_His (mouse, UniProt P97321 26-761); test: Biacore, scFv; 8E3, murine FAP
T1 construct: Fusion protein expressed in 293F cells and purified on a nickel column; also called mFAP

[2] = target: T2, human FAPα_His (human, UniProt Q12884 26-760); test: Biacore, scFv; reference is parent antibody 10A4
T2 construct: Fusion protein expressed in 293F cells and purified on a nickel column; also called huFAP; recombinant huFAPα
T2 sequence (Q12884 other isoform, or with tags, fused parts or gaps limits assumed): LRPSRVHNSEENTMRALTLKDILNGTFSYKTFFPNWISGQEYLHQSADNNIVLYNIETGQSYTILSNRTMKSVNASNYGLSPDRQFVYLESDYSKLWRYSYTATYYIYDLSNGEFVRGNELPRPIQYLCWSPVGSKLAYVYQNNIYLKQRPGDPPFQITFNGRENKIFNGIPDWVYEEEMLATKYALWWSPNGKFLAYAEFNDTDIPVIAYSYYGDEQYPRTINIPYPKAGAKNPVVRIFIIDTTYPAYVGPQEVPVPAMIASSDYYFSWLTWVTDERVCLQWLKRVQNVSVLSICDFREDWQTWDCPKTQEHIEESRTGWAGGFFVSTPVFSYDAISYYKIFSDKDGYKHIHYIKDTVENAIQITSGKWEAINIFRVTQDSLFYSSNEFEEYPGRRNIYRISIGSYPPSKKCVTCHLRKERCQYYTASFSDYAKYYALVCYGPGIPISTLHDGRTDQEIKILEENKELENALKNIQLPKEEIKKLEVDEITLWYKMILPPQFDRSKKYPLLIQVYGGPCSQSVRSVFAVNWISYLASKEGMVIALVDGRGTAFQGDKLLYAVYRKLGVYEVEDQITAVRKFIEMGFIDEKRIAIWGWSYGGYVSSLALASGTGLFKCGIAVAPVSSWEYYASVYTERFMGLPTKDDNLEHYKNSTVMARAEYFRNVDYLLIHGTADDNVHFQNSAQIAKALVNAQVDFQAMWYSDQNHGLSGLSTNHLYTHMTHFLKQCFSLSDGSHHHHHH

[3] = target: T2, human FAPα_His; test: Biacore, scFv; 8E3, human FAPα

T1 sequence (P97321 other isoform, or with tags, fused parts or gaps limits assumed): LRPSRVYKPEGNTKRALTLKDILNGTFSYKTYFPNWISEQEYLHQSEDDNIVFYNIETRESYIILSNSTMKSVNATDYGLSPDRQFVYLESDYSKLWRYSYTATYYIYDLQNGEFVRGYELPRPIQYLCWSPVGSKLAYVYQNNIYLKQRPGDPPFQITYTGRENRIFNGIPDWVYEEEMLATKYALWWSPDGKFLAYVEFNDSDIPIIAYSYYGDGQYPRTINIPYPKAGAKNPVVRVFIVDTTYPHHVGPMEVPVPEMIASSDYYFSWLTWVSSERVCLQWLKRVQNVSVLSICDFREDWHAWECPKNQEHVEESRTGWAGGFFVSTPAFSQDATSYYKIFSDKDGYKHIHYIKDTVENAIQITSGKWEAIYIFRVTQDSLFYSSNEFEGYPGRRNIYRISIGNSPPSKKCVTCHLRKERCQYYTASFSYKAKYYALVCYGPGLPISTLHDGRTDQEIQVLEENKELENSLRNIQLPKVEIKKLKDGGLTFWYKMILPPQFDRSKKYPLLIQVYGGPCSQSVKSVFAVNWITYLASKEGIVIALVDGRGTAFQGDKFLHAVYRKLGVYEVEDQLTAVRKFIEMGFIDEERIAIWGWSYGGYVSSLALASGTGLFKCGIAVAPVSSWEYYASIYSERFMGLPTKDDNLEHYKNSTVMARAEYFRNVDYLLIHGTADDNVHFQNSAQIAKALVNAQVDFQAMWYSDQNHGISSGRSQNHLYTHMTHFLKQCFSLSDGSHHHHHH

Kd [1]: 0.267 µM
fold affinity against 10A4 [2]: 2.4 times
Kd [3]: 0.0816 µM
B1: antibody 8E3 (scFv), affinity-matured from 10A4 (scFv)
scFv: QVQLVQSGAEVKKPGSSVKVSCKASGGTFSSYAISWVRQAPGQGLEWMGGIIPIFGTANYAQKFQGRVTITADKSTSTAYMELSSLRSEDTAVYYCARDAADRDYWGQGTTVTVSSGGGGSGGGGSGGGGSDIVMTQSPLSLPVTPGEPASISCRSSQSLLHPNGFNHLYWYLQKPGQSPQLLIYVGGNRASGVPDRFSGSGSGTDFTLKISRVEAEDVGVYYCQQRNNKNRTFGQGTKVEIKR
notes: also called hu8E3
